Measured values published in the supplement of paper PMC10724198.
± gives the standard deviation of the averaged measurements.

What was measured:
[1] = tested on: Saccharomyces cerevisiae; assay: protein stability index of tFT-peptide fusion (C-terminal peptide) (PSI (0-1 scale)); higher = more stable (slower turnover)
Protocol: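 MPS profiling in S. cerevisiae of the tFT-X12 degron library: putative degron peptides plus stable controls, 12 aa, fused to the C-terminus of a sfGFP-mCherry timer. Cells are FACS-sorted into 8 mCherry/sfGFP bins and deep-sequenced. PSI runs from 0 (unstable) to 1 (stable). Backgrounds are wild type, das1Δ and doa10Δ at 30 °C, and wild type, das1Δ, cdc34-1 and cdc53-1 at 37 °C; 2-3 technical replicates each.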

[2] = tested on: Saccharomyces cerevisiae; assay: as above; details: genetic background: wild type; temperature: 30 C
[3] = genetic background: cdc34-1, temperature: 37 C
[4] = genetic background: cdc53-1, temperature: 37 C
[5] = genetic background: das1 deletion, temperature: 30 C
[6] = genetic background: das1 deletion, temperature: 37 C
[7] = genetic background: doa10 deletion, temperature: 30 C
[8] = genetic background: wild type, temperature: 30 C
[9] = genetic background: wild type, temperature: 37 C
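Further: PSI is a weighted mean of sequencing reads over stability bins, variants kept only with over 10 reads, mCherry proximal and sfGFP distal, peptide attached via GGGS linker.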

Sequence	protein stability index [1, 3]	protein stability index [1, 4]	protein stability index [1, 5]	protein stability index [1, 6]	protein stability index [1, 7]	protein stability index [1, 8]	protein stability index [1, 9]	protein stability index [2]
CGWFVSVGWRLG	0.5443 ± 0.0014	0.67 ± 0.037	0.514 ± 0.016	0.66 ± 0.0096	0.228 ± 0.014	0.305 ± 0.035	0.5062 ± 0.0022	0.25 ± 0.013
CHFLLHYVFLLS	0.3792 ± 0.0019	0.456 ± 0.0076	0.306 ± 0.037	0.523 ± 0.0055	0.241 ± 0.0065	0.267 ± 0.024	0.462 ± 0.015	0.417 ± 0.017
CHPIPLARLAPT	0.671 ± 0.032	0.745 ± 0.032	0.67 ± 0.046	0.7433 ± 0.0058	0.652 ± 0.026	0.666 ± 0.014	0.697 ± 0.011	0.72 ± 0.013
CKKATILRIKSM	0.589 ± 0.049	0.715 ± 0.051	0.643 ± 0.014	0.691 ± 0.0021	0.17 ± 0.023	0.19 ± 0.031	0.298 ± 0.059	0.304 ± 0.013
CLCYFLFYFLFV	0.49 ± 0.0055	0.513 ± 0.026	0.436 ± 0.033	0.572 ± 0.0063	0.465 ± 0.023	0.442 ± 0.029	0.543 ± 0.028	0.501 ± 0.043
CLEHLVYCRLAS	0.435 ± 0.046	0.624 ± 0.06	0.555 ± 0.015	0.6774 ± 0.0062	0.0612 ± 0.0023	0.0694 ± 0.025	0.0634 ± 0.0027	0.131 ± 0.022
CLHFLTWVRICS	0.2 ± 0.041	0.4701 ± 0.0029	0.409 ± 0.019	0.526 ± 0.011	0.0895 ± 0.0063	0.0814 ± 0.025	0.0804 ± 0.03	0.285 ± 0.041
CLNPCVRWDGHV	0.739 ± 0.065	0.7589 ± 0.0016	0.651 ± 0.039	0.77 ± 0.0062	0.661 ± 0.05	0.687 ± 0.028	0.732 ± 0.011	0.708 ± 0.0077
CMAWLSVLKTLF	0.709 ± 0.082	0.744 ± 0.023	0.63 ± 0.017	0.756 ± 0.037	0.387 ± 0.037	0.421 ± 0.012	0.615 ± 0.053	0.495 ± 0.04
CRQDWMCFVYLS	0.0642 ± 0.013	0.0406 ± 0.0042	0.145 ± 0.021	0.187 ± 0.031	0.166 ± 0.0047	0.0558 ± 0.007	0.0647 ± 0.023	0.108 ± 0.016
CVFAYSPVALRC	0.543 ± 0.025	0.534 ± 0.014	0.409 ± 0.024	0.556 ± 0.0084	0.412 ± 0.016	0.403 ± 0.018	0.532 ± 0.018	0.488 ± 0.01
CVFGFACRVLVV	0.288 ± 0.012	0.32639 ± 4.3e-05	0.281 ± 0.031	0.407 ± 0.0012	0.241 ± 0.011	0.278 ± 0.02	0.364 ± 0.01	0.338 ± 0.017
CYKYTYVKNNMI	0.689 ± 0.042	0.7646 ± 0.0044	0.642 ± 0.038	0.753 ± 0.014	0.197 ± 0.013	0.231 ± 0.044	0.555 ± 0.014	0.249 ± 0.051
CYRRCQAFLVLV	0.313 ± 0.024	0.397 ± 0.015	0.334 ± 0.031	0.449 ± 0.015	0.134 ± 0.0022	0.127 ± 0.026	0.162 ± 0.011	0.181 ± 0.0026
DFVFFLVSVRFR	0.103 ± 0.039	0.216 ± 0.059	0.177 ± 0.037	0.32 ± 0.017	0.15 ± 0.013	0.178 ± 0.03	0.284 ± 0.0058	0.284 ± 0.081
DGSFCLLYMTIA	0.504 ± 0.066	0.5745 ± 0.002	0.429 ± 0.02	0.615 ± 0.046	0.293 ± 0.0055	0.332 ± 0.016	0.4919 ± 0.0048	0.454 ± 0.01
DGYLFKGIWFFV	0.645 ± 0.011	0.7326 ± 0.0039	0.617 ± 0.033	0.738 ± 0.036	0.145 ± 0.0041	0.163 ± 0.022	0.349 ± 0.0098	0.189 ± 0.031
DKVTLLRRCKQY	0.606 ± 0.03	0.726 ± 0.009	0.634 ± 0.026	0.701 ± 0.015	0.173 ± 0.029	0.206 ± 0.03	0.311 ± 0.012	0.202 ± 0.12
DLRGLGRFRISH	0.6886 ± 0.0067	0.741 ± 0.021	0.64 ± 0.031	0.7181 ± 0.0055	0.486 ± 0.0072	0.503 ± 0.024	0.677 ± 0.017	0.572 ± 0.11
DLVGRETRMRLN	0.6744 ± 0.0063	0.70449 ± 0.00037	0.633 ± 0.039	0.7221 ± 0.0045	0.202 ± 0.01	0.263 ± 0.022	0.526 ± 0.097	0.383 ± 0.0088

Sequence	protein stability index [1, 3]	protein stability index [1, 4]	protein stability index [1, 5]	protein stability index [1, 6]	protein stability index [1, 7]	protein stability index [1, 8]	protein stability index [1, 9]	protein stability index [2]
DPTLLLYPLSPL	0.688 ± 0.018	0.765 ± 0.0076	0.654 ± 0.019	0.748 ± 0.014	0.667 ± 0.029	0.685 ± 0.035	0.72 ± 0.023	0.57 ± 0.2
DVVRWQRVRNYV	0.687 ± 0.024	0.7218 ± 0.0072	0.632 ± 0.022	0.737 ± 0.0088	0.2746 ± 0.0021	0.3 ± 0.028	0.573 ± 0.0059	0.454 ± 0.041
EGREGGGRGEVL	0.455 ± 0.011	0.589 ± 0.04	0.471 ± 0.029	0.496 ± 0.03	0.482 ± 0.024	0.479 ± 0.011	0.472 ± 0.013	
FSQGFRSPSECL	0.712 ± 0.03	0.764 ± 0.014	0.63 ± 0.016	0.765 ± 0.036	0.647 ± 0.011	0.655 ± 0.023	0.7608 ± 0.0072	
FVVVVVWVSRGL	0.174 ± 0.0059	0.399 ± 0.05	0.214 ± 0.036	0.423 ± 0.008	0.172 ± 0.029	0.196 ± 0.048	0.383 ± 0.023	
GGRREWCRGGGV	0.635 ± 0.11	0.746 ± 0.034	0.555 ± 0.029	0.695 ± 0.03	0.544 ± 0.0089	0.546 ± 0.015	0.708 ± 0.03	
RWCLVWGGVWGV	0.593 ± 0.03	0.68 ± 0.025	0.494 ± 0.029	0.674 ± 0.02	0.486 ± 0.013	0.5 ± 0.017	0.645 ± 0.011	
SSLRATLLIRAV	0.543 ± 0.023	0.564 ± 0.011	0.44 ± 0.019	0.584 ± 0.0032	0.352 ± 0.025	0.371 ± 0.032	0.5171 ± 0.0041	
VLLCGRMVVVEW	0.0831 ± 0.0095	0.163 ± 0.0037	0.163 ± 0.01	0.143 ± 0.011	0.196 ± 0.032	0.153 ± 0.014	0.132 ± 0.021	
WVFYAVRWRTWN	0.254 ± 0.015	0.44 ± 0.0092	0.311 ± 0.037	0.54 ± 0.017	0.0632 ± 0.0063	0.066 ± 0.018	0.061 ± 0.0063	
YLVRENLFSRLV								0.466 ± 0.07
YMAGPAQGRDGS								0.668 ± 0.013
YNANEKTINKDK								0.693 ± 0.063
YNYADVCTNESP								0.7 ± 0.022
YPCPPLLISSPP								0.709 ± 0.051
YPPLSYSFCHRP								0.637 ± 0.072
YPSQLGPSVPLS								0.703 ± 0.039
YPTCPPPSARRV								0.58 ± 0.025
YQGERGAIGVIF								0.605 ± 0.013
YRAHAYPYVPRS								0.682 ± 0.027

Sequence	protein stability index [1, 3]	protein stability index [1, 4]	protein stability index [1, 5]	protein stability index [1, 6]	protein stability index [1, 7]	protein stability index [1, 8]	protein stability index [1, 9]	protein stability index [2]
YRALRRAFENKI								0.633 ± 0.028
YRCVQKEIVQRY								0.693 ± 0.056
YRDSLLATNFFS								0.694 ± 0.056
YREIVKQTENKR								0.673 ± 0.0083
YRPLEQLLSLSH								0.651 ± 0.08
YSFFTLCLSLPA								0.557 ± 0.025
YSHPCLSCREAH								0.749 ± 0.057
YSIKSTVTYSVH								0.574 ± 0.066
YSLASRVVNFCA								0.497 ± 0.012
YSLLSAHLVPIA								0.614 ± 0.027
YSLVKITHGRKK								0.684 ± 0.015
YSSFRSVNWVFP								0.6838 ± 0.0033
YSSLLLPPLLLF								0.621 ± 0.025
YSTYGGGYFMAF								0.668 ± 0.031
YTLMEERTKKDN								0.742 ± 0.068
YTMGGSLSVSLD								0.817 ± 0.16
YTPLLAHRGCCC								0.695 ± 0.029
YVPTPSRPRRNR								0.718 ± 0.066
YYPLLLASQLPI								0.735 ± 0.0041
YYRLLACQRPSR								0.679 ± 0.027
